Assay results: US20240247080A1, “GLP1/GIP/NPY2 RECEPTOR TRIPLE AGONISTS” (Boehringer Ingelheim International GmbH, priority 2022, published 2024)
Starred links: 1 amine or outer side, 2 acyl side, 3 side chain; linkers in the order of their positions; H or OH if unused. Non-standard residues stand in square brackets, D forms with d. Groups on a side chain read outwards from the residue. No end group written: not given here. *: point of attachment. C20 diacid = O=C(O)CCCCCCCCCCCCCCCCCCC(=O)*; C18 diacid = O=C(O)CCCCCCCCCCCCCCCCC(=O)*; γGlu = O=C(O)[C@H](CCC(=O)[*:2])N[*:1]; εLys = N[C@@H](CCCCN[*:1])C(=O)[*:2]; AEEA = NCCOCCOCC(=O)O; Aib = CC(C)(N)C(=O)O; OEG = OEG spacer

B1: Compound 265 (peptide)
peptide: YXEGTFTSDYSIXLEKQAQXAFVQWLIKGGPSEGASLRHYYNWLTRQRY
modifications: Aib at 2, 13, 20; K28 side chain acylated with C18DA-gGlu-gGlu-gGlu-gGlu-gGlu-gGlu-eLys; C-terminal amide (NH2)

Biological target: human GLP-1 receptor (human, UniProt P43220 24-463)
Assay: cell-based or functional assay

Binder | EC50 hGLP1R 0.5% hP (CreLuc) [nM] | EC50 hGLP1R 100% hP (CreLuc) [nM]
B1 | 0.1 | 2.13
Y[Aib]EGTFTSDYSI[Aib]LEKQAQ[Aib]AFVQWLIK([AEEA-AEEA-γGlu-γGlu-γGlu-γGlu-C20 diacid])GGPSEGASLRHYYNWLTRQRY-NH2 (also: TFA salt) [Compound 269] | 0.14 | 3.86
Y[Aib]EGTFTSDYSI[Aib]LEKQAQ[Aib]AFVQWLIK([Glu-Glu-Glu-Glu-Glu-Glu-C18 diacid])GGPSEGASLRHYYNWLTRQRY-NH2 (also: TFA salt) [Compound 264] | 0.11 | 3.95
Y[Aib]EGTFTSDYSI[Aib]LEKQAQ[Aib]AFVQWLIK([εLys-γGlu-γGlu-γGlu-γGlu-γGlu-C18 diacid])GGPSEGASLRHYYNWLTRQRY-NH2 (also: TFA salt) [Compound 267] | 0.07 | 1.44
Y[Aib]EGTFTSDYSI[Aib]LEKQAQ[Aib]AFVEWLIK([εLys-γGlu-γGlu-γGlu-γGlu-γGlu-C18 diacid])GGPSEPASLRHYYNWLTRQRY-NH2 (also: TFA salt) [Compound 263] | 0.32 | 5.21
Y[Aib]EGTFTSDYSI[Aib]LEKQAQ[Aib]AFVQWLIK([γGlu-γGlu-γGlu-γGlu-C18 diacid])GGPSEGASLRHYYNWLTRQRY-NH2 (also: TFA salt) [Compound 268] | 0.08 | 1.55
Y[Aib]EGTFTSDYSI[Aib]LEKQAQ[Aib]AFVQWLIK([OEG-OEG-γGlu-γGlu-γGlu-C18 diacid])GGPSEGASLRHYYNWLTRQRY-NH2 (also: TFA salt) [Compound 266] | 0.1 | 2.21
Y[Aib]EGTFTSDYSI[Aib]LEKQAQ[Aib]AFVQWLIK([AEEA-AEEA-γGlu-γGlu-γGlu-γGlu-C18 diacid])GGPSEGASLRHYYNWLTRQRY-NH2 (also: TFA salt) [Compound 270] | 0.07 | 1.69

Biological target: T1, human GIP receptor (human, UniProt P48546 22-466)
T1 sequence (looked up): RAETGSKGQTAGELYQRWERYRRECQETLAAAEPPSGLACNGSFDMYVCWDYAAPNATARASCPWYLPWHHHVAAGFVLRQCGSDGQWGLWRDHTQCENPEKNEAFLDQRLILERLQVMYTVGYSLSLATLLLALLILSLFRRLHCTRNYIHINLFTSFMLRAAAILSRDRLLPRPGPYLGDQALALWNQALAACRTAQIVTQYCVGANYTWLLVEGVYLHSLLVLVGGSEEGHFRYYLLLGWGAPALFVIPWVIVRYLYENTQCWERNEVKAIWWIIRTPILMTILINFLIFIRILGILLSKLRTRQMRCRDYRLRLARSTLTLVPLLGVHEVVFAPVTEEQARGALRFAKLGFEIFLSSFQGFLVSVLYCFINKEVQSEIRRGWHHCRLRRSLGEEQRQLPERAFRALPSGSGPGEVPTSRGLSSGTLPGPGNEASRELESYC
Assay: cell-based or functional assay

Binder | EC50 hGIPR 0.5% hP (CreLuc) [nM] | EC50 hGIPR 100% hP (CreLuc) [nM]
B1 | 0.39 | 0.79
Y[Aib]EGTFTSDYSI[Aib]LEKQAQ[Aib]AFVQWLIK([AEEA-AEEA-γGlu-γGlu-γGlu-γGlu-C20 diacid])GGPSEGASLRHYYNWLTRQRY-NH2 (also: TFA salt) [Compound 269] | 0.46 | 1.23
Y[Aib]EGTFTSDYSI[Aib]LEKQAQ[Aib]AFVQWLIK([Glu-Glu-Glu-Glu-Glu-Glu-C18 diacid])GGPSEGASLRHYYNWLTRQRY-NH2 (also: TFA salt) [Compound 264] | 0.28 | 1.82
Y[Aib]EGTFTSDYSI[Aib]LEKQAQ[Aib]AFVQWLIK([εLys-γGlu-γGlu-γGlu-γGlu-γGlu-C18 diacid])GGPSEGASLRHYYNWLTRQRY-NH2 (also: TFA salt) [Compound 267] | 0.12 | 1.18
Y[Aib]EGTFTSDYSI[Aib]LEKQAQ[Aib]AFVEWLIK([εLys-γGlu-γGlu-γGlu-γGlu-γGlu-C18 diacid])GGPSEPASLRHYYNWLTRQRY-NH2 (also: TFA salt) [Compound 263] | 0.12 | 1.5
Y[Aib]EGTFTSDYSI[Aib]LEKQAQ[Aib]AFVQWLIK([γGlu-γGlu-γGlu-γGlu-C18 diacid])GGPSEGASLRHYYNWLTRQRY-NH2 (also: TFA salt) [Compound 268] | 0.17 | 1.01
Y[Aib]EGTFTSDYSI[Aib]LEKQAQ[Aib]AFVQWLIK([OEG-OEG-γGlu-γGlu-γGlu-C18 diacid])GGPSEGASLRHYYNWLTRQRY-NH2 (also: TFA salt) [Compound 266] | 0.13 | 0.65
Y[Aib]EGTFTSDYSI[Aib]LEKQAQ[Aib]AFVQWLIK([AEEA-AEEA-γGlu-γGlu-γGlu-γGlu-C18 diacid])GGPSEGASLRHYYNWLTRQRY-NH2 (also: TFA salt) [Compound 270] | 0.12 | 0.71

Biological target: T2, human neuropeptide Y2 receptor (human, UniProt P49146 1-381)
T2 sequence (looked up): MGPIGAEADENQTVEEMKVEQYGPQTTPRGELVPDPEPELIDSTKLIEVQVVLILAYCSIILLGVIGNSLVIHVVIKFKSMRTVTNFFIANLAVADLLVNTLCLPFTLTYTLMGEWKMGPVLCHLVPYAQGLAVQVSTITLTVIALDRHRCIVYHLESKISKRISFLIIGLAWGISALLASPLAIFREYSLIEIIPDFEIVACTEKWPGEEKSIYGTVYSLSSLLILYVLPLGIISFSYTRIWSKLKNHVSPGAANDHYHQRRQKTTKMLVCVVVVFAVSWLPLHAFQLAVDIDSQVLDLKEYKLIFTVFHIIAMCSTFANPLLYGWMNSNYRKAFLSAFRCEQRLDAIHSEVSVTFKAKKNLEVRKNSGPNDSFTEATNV
Assay: cell-based or functional assay

Binder | EC50 hNPY2R 0.5% hP (CreLuc) [nM] | EC50 hNPY2R 100% hP (CreLuc) [nM]
B1 | 8.83 | 23
Y[Aib]EGTFTSDYSI[Aib]LEKQAQ[Aib]AFVQWLIK([AEEA-AEEA-γGlu-γGlu-γGlu-γGlu-C20 diacid])GGPSEGASLRHYYNWLTRQRY-NH2 (also: TFA salt) [Compound 269] | 9.56 | 32.5
Y[Aib]EGTFTSDYSI[Aib]LEKQAQ[Aib]AFVQWLIK([Glu-Glu-Glu-Glu-Glu-Glu-C18 diacid])GGPSEGASLRHYYNWLTRQRY-NH2 (also: TFA salt) [Compound 264] | 16.8 | 81.2
Y[Aib]EGTFTSDYSI[Aib]LEKQAQ[Aib]AFVQWLIK([εLys-γGlu-γGlu-γGlu-γGlu-γGlu-C18 diacid])GGPSEGASLRHYYNWLTRQRY-NH2 (also: TFA salt) [Compound 267] | 9.25 | 27.6
Y[Aib]EGTFTSDYSI[Aib]LEKQAQ[Aib]AFVEWLIK([εLys-γGlu-γGlu-γGlu-γGlu-γGlu-C18 diacid])GGPSEPASLRHYYNWLTRQRY-NH2 (also: TFA salt) [Compound 263] | 15.8 | 83.2
Y[Aib]EGTFTSDYSI[Aib]LEKQAQ[Aib]AFVQWLIK([γGlu-γGlu-γGlu-γGlu-C18 diacid])GGPSEGASLRHYYNWLTRQRY-NH2 (also: TFA salt) [Compound 268] | 9.86 | 47.3
Y[Aib]EGTFTSDYSI[Aib]LEKQAQ[Aib]AFVQWLIK([OEG-OEG-γGlu-γGlu-γGlu-C18 diacid])GGPSEGASLRHYYNWLTRQRY-NH2 (also: TFA salt) [Compound 266] | 7.2 | 22.9
Y[Aib]EGTFTSDYSI[Aib]LEKQAQ[Aib]AFVQWLIK([AEEA-AEEA-γGlu-γGlu-γGlu-γGlu-C18 diacid])GGPSEGASLRHYYNWLTRQRY-NH2 (also: TFA salt) [Compound 270] | 9.52 | 21.1
